Measurements published in patent US12194082B2, “Compositions and methods for treatment of homocystinuria” (THE REGENTS OF THE UNIVERSITY OF COLORADO, priority 2016, dated 2025).

Columns and labels:
[1] = LC/MS/MS C15S activity assay of monkey plasma samples; format: in vivo, cynomolgus monkey
Excerpt: The bioanalytical method developed using LC/MS/MS for the determination of cystathionine M+4 as product of the CBS activity using cystathionine M+8 (^13C2D6) as an internal standard has been developed and validated for both monkey and human plasma samples and thus can be used to determine CBS activity in samples from pharmacokinetic and toxicology studies as well as clinical trials. The enzymatic assay was essentially performed as described in Example 1 with the following modifications. Deuterated D,L-homocysteine M+4 was used to initiate the reaction with unlabeled L-serine in the reaction mixture. After 30 min incubation at 37° C., the enzymatic reaction was stopped by acidification using 6N HCl and labeled product of the reaction (cystathionine M+4) was extracted using EZ:faast kit (Phenomenex, USA). Briefly, 50 μl of sample (calibration standard, QC sample or enzymatic reaction) was mixed in tube on ice and protected from light with 100 μl of internal standard solution (cystathionine M+8, 0.25 ng/μl) and 250 μl water. The mix was extracted with MCX cartridge columns (Waters). Eluted medium (6N ammonia in methanol) was evaporated to dryness at 45° C. The dry residue was dissolved in eluent medium of the EZ:faast kit, derivatized and liquid-liquid extracted following the kit manufacturer's protocol. The solid phase extraction was automatized with extraction plates to increase throughput and save time. Measurable concentrations of cystathionine M+4 were observed regardless of origin of the enzyme (htCBS C15S or C15S/ME-200GS present in plasma samples or controls or traces of endogenous monkey/human CBS in plasma samples). Much attention was paid to the calibration range since the incurred determinations were in the higher part of the concentration range qualified (5.00 to 1500 nM).
Tables 12-14 below show the comparison of C15S/ME-200GS specific activity determined by LC/MS/MS using D,L-homocysteine M+4 as a substrate and by radiometric assay using L-[…] as a substrate. The enzyme's specific activity is presented in mU/μl. The “n.d.” stands for “not determined”.

[2] = tested on: Hcy, Cys, Cth, and Met; experiment: Metabolite levels in plasma and tissues of KO mice at 18-19 days of age; format: in vivo
Experimental: Plasma metabolites homocysteine, cystathionine and cysteine were determined by stable-isotope-dilution liquid chromatography mass spectrometry as previously described in (Allen et al., 1993, Metabolism, 42: 1448-1460). Measurements of total non-protein bound homocysteine and other aminothiols as well as of amino acids in tissue were performed as described in (Maclean et al., 2010b. Mol. Genet. Metab. 101, 153-162). Metabolites were determined by stable-isotope-dilution liquid chromatography mass spectrometry.
Plasma and tissue metabolites were measured in the groups of wild-type mice (control), untreated homozygous −/− affected KO mice, and 400MA PEG-htCBS C15S-treated KO mice. The treated group was administered subcutaneous injections of 400MA PEG-htCBS C15S 3 times per week at a dose of 7.5 mg/kg from the age of 2 days. Plasma and tissues were harvested 24 hours after the last injection.

[3] = rat, in vivo, sc
Experimental: CBS activity was determined by a radioisotope assay with C^14-labeled serine as a substrate. Ten μl (total 490 ng) of pure htCBS in dilution buffer (0.1 M Tris-HCl pH=8.6, 1 mM DTT, 10 μM PLP, 0.5 mg/ml BSA) or 10 μl of plasma were added to 85 μl of reaction mixture containing 0.1 M Tris-HCl pH=8.6, 10 mM L-serine, 0.5 mM PLP, 0.5 mg/ml BSA and 0.3 μCi (for pure enzyme) or 0.45 μCi (for plasma) of L-[C^14(U)]-Serine. Samples were incubated for 5 min at 37° C. and reaction was initiated by addition of 5 μl of 0.2 M Hcy (10 mM final concentration). Following 30 min of incubation at 37° C., a 20 μl aliquot of the assay mixture was applied onto a grade 3 CHR Whatman (NJ, USA) paper. Assay initiation and sampling of the resulting mixture were staggered so that each reaction time was 30 minutes. Descending paper chromatography was used to isolate the radioactive product (Cth) from a labeled substrate (Ser). The C^14-cystathionine formed in the reaction was separated from C^14-serine by an overnight descending paper chromatography in 2-propanol/formic acid/H2O (75:5.7:18.9 v/v). Radioactivity in the area of the marker cystathionine (detected by staining the marker lane with ninhydrin) was determined by cutting the chromatogram into strips that were submerged in 5 ml of Opti-fluor scintillation cocktail (PerkinElmer, MA, USA) and counted in a Beckman LS-3801 scintillation counter. An enzyme-free sample was used as a blank to monitor the background radioactivity that was then subtracted from each sample. For pure enzyme, specific activity values are expressed as enzyme units (the amount of enzyme that produces 1 μmol of cystathionine/hour) per mg of CBS, and for plasma samples as units per μl plasma.
The pharmacokinetic (PK) parameters were calculated using a non-compartmental curve stripping model which resolves a curve into a series of exponential terms corresponding to the absorption, distribution and elimination phases occurring during the time course of the enzyme in the blood. The curve stripping approach assumes that the disposition phases of the drug follow apparent first-order kinetics, which is evidenced by the linearity in the terminal portion of a semi-log plot. These calculations were made using a modeling program called PK Solutions 2.0 (Summit Solutions, Montrose, CO) using the mean plasma enzyme activity for each route of administration. The bioavailability was calculated by dividing the area under the curve (AUC) for the SC or IP route by the AUC observed after IV administration.
In order to assess the pharmacokinetics of 20NHS PEG-htCBS C15S in rats, wild-type Sprague Dawley rats were injected with a single dose of 20NHS PEG-htCBS C15S through intra-vascular (IV) or sub-cutaneous (SC) routes. The design of a third (repeated dose) PK study (groups 7-9) was adjusted to allow extraction of data after the first dose and thus their combination with a single dose PK study (groups 1-6).
To further evaluate rats as a species for conducting long-term toxicity studies, the pharmacokinetics of 20NHS PEG-htCBS C15S was determined in three groups of Sprague Dawley rats receiving a total of 9 SC injections every 48 hours of either 4 mg/kg (low), 8 mg/kg (mid), or 24 mg/kg (high) 20NHS PEG-htCBS C15S. […] The experiment was conducted for a length of 24 days.

[4] = tested on: KO mice; experiment: DEXA bone mineralization and body composition in KO mice; format: in vivo, mouse; details: 7.5 mg/kg SC 3x/week from day 2 to about 5 months
Experimental: A PIXImusII DEXA scanner (GE Lunar Medical Systems) specifically designed for scanning small animals such as mice was used for DEXA analysis. This machine enabled quick and efficient determination of the body composition (lean, fat mass, and bone density) of a mouse before terminal tissue extraction procedures. Mice were fasted for 4 hours prior to the DEXA measurement to remove food from the gastro-intestinal tract. Mice were then anesthetized using IP bolus injection of 60 mg/kg ketamine and 15 mg/kg xylazine and placed on a tray in the DEXA machine. After the measurement was done (3˜5 minutes), the mice were removed from the DEXA machine and used in terminal procedures, such as tissue extractions.
The bone mineral density (BMD) and bone mineral content (BMC) were analyzed by DEXA for three groups of mice: +/− healthy heterozygous controls (n=4M+6F), affected KO controls (n=5M+13F), and 20NHS PEG-htCBS C15S (C15S/ME-200GS)-treated KO mice (n=6M+15F). The 20NHS PEG-htCBS C15S-treated mice were administered 7.5 mg/kg subcutaneously (SC) three times a week from day 2 to about 5 months. All −/− KO mice were treated for the initial 5 W (from 2 to 35 days of age) to prevent neonatal lethality.

[5] = 7.5 mg/kg SC 3x/week from day 2, 24 hours after last injection, mean ± SEM
[6] = 7.5 mg/kg SC 3x/week from day 2, mean ± SEM

20NHS PEG-htCBS C15S: htCBS C15S PEGylated with ME-200GS PEG (20 kDa linear NHS ester-activated PEG)
specific activity in plasma, LC/MS/MS assay ([1]; single IV 2 mg/kg, 0.083 h): 88.865 mU/μl | specific activity in plasma, LC/MS/MS assay ([1]; single IV 2 mg/kg, 0.167 h): 81.065 mU/μl | specific activity in plasma, LC/MS/MS assay ([1]; single IV 2 mg/kg, 0.25 h): 80.315 mU/μl | specific activity in plasma, LC/MS/MS assay ([1]; single IV 2 mg/kg, 0.5 h): 81.815 mU/μl | specific activity in plasma, LC/MS/MS assay ([1]; single IV 2 mg/kg, 1 h): 75.415 mU/μl | specific activity in plasma, LC/MS/MS assay ([1]; single IV 2 mg/kg, 2 h): 71.765 mU/μl | specific activity in plasma, LC/MS/MS assay ([1]; single IV 2 mg/kg, 4 h): 67.415 mU/μl | specific activity in plasma, LC/MS/MS assay ([1]; single IV 2 mg/kg, 8 h): 61.715 mU/μl | specific activity in plasma, LC/MS/MS assay ([1]; single IV 2 mg/kg, 24 h): 47.815 mU/μl | specific activity in plasma, LC/MS/MS assay ([1]; single IV 2 mg/kg, 72 h): 28.915 mU/μl | specific activity in plasma, LC/MS/MS assay ([1]; single IV 2 mg/kg, 120 h): 17.180 mU/μl | specific activity in plasma, LC/MS/MS assay ([1]; single IV 2 mg/kg, 192 h): 8.490 mU/μl | specific activity in plasma, LC/MS/MS assay ([1]; single SC 2 mg/kg, 2 h): 6.479 mU/μl | specific activity in plasma, LC/MS/MS assay ([1]; single SC 2 mg/kg, 4 h): 11.108 mU/μl | specific activity in plasma, LC/MS/MS assay ([1]; single SC 2 mg/kg, 8 h): 19.913 mU/μl | specific activity in plasma, LC/MS/MS assay ([1]; single SC 2 mg/kg, 48 h): 32.538 mU/μl | specific activity in plasma, LC/MS/MS assay ([1]; single SC 2 mg/kg, 72 h): 27.888 mU/μl | specific activity in plasma, LC/MS/MS assay ([1]; single SC 2 mg/kg, 96 h): 20.768 mU/μl | specific activity in plasma, LC/MS/MS assay ([1]; single SC 2 mg/kg, 120 h): 16.958 mU/μl | specific activity in plasma, LC/MS/MS assay ([1]; single SC 2 mg/kg, 192 h): 9.063 mU/μl | specific activity in plasma, LC/MS/MS assay ([1]; single SC 2 mg/kg, 240 h): 5.908 mU/μl | specific activity in plasma, LC/MS/MS assay ([1]; single SC 2 mg/kg, 336 h): 2.273 mU/μl | specific activity in plasma, LC/MS/MS assay ([1]; single SC 6 mg/kg, 1 h): 3.065 mU/μl | specific activity in plasma, LC/MS/MS assay ([1]; single SC 6 mg/kg, 2 h): 7.640 mU/μl | specific activity in plasma, LC/MS/MS assay ([1]; single SC 6 mg/kg, 4 h): 18.365 mU/μl | specific activity in plasma, LC/MS/MS assay ([1]; single SC 6 mg/kg, 8 h): 41.090 mU/μl | specific activity in plasma, LC/MS/MS assay ([1]; single SC 6 mg/kg, 24 h): 85.190 mU/μl | specific activity in plasma, LC/MS/MS assay ([1]; single SC 6 mg/kg, 48 h): 86.090 mU/μl | specific activity in plasma, LC/MS/MS assay ([1]; single SC 6 mg/kg, 72 h): 74.840 mU/μl | specific activity in plasma, LC/MS/MS assay ([1]; single SC 6 mg/kg, 96 h): 59.940 mU/μl | specific activity in plasma, LC/MS/MS assay ([1]; single SC 6 mg/kg, 120 h): 56.340 mU/μl | specific activity in plasma, LC/MS/MS assay ([1]; single SC 6 mg/kg, 192 h): 24.190 mU/μl | specific activity in plasma, LC/MS/MS assay ([1]; single SC 6 mg/kg, 240 h): 14.440 mU/μl | specific activity in plasma, LC/MS/MS assay ([1]; single SC 6 mg/kg, 336 h): 4.784 mU/μl | Cystathionine in plasma [2, 5]: 133.2 ± 9.1 µM | Cysteine in plasma [2, 5]: 211.7 ± 11.5 µM | Homocysteine in plasma [2, 5]: 52.8 ± 6.8 µM | Methionine in plasma [2, 5]: 99.2 ± 5.4 µM | Cystathionine in brain tissue [2, 6]: 8.5 ± 1.1 nmols/g | Cystathionine in kidney tissue [2, 6]: 256.0 ± 77.5 nmols/g | Cystathionine in liver tissue [2, 6]: 18.9 ± 1.8 nmols/g | Cysteine in brain tissue [2, 6]: 56.8 ± 3.0 nmols/g | Cysteine in kidney tissue [2, 6]: 282.8 ± 17.1 nmols/g | Cysteine in liver tissue [2, 6]: 205.2 ± 27.4 nmols/g | Homocysteine in brain tissue [2, 6]: 1.1 ± 0.1 nmols/g | Homocysteine in kidney tissue [2, 6]: 6.76 ± 4.42 nmols/g | Homocysteine in liver tissue [2, 6]: 22.4 ± 3.4 nmols/g | Methionine in brain tissue [2, 6]: 68.6 ± 4.7 nmols/g | Methionine in kidney tissue [2, 6]: 53.3 ± 2.9 nmols/g | Methionine in liver tissue [2, 6]: 25.5 ± 3.4 nmols/g | elimination half-life (T1/2) [3]: 44.5 h | BMD vs control groups [4]: significantly higher BMD than both control groups | osteoporosis and body composition (DEXA) [4]: completely prevented profound osteoporosis and improved body composition
